Results on 44 sequences are retold here after the Immune Epitope Database (IEDB).

One experiment deals with HLA-A*23:01. Put plainly: IEDB peptide-MHC binding, purified MHC/competitive/radioactivity; filed as Kd, often an IC50 or EC50 that approximates it; ≥ and ≤ were set here for values at or beyond the usual limits of such assays. Particulars: source organism: Dengue virus 2 Jamaica/1409/1983.
The target in a further experiment is HLA-A*26:01. The description is as above. The following applies: source organism: Dengue virus 2 Jamaica/1409/1983.
In a further experiment the target is HLA-A*32:01. The experiment is described as above.
The target in another experiment is HLA-A*30:01. Described as above.
The target in experiment [1] is HLA-A*01:01. Put plainly: IEDB peptide-MHC binding, purified MHC/direct/fluorescence; filed as Kd, often an IC50 or EC50 that approximates it; ≥ and ≤ were set here for values at or beyond the usual limits of such assays.
A further experiment has as its target HLA-A*30:02. Description: IEDB peptide-MHC binding, purified MHC/competitive/radioactivity; filed as Kd, often an IC50 or EC50 that approximates it; ≥ and ≤ were set here for values at or beyond the usual limits of such assays. The following applies: source organism: Dengue virus 1 Brazil/97-11/1997.
In experiment [2] the target is HLA-A*03:01. Described as above. The following applies: source organism: Dengue virus 3 Singapore/8120/1995.
The target of experiment [3] is HLA-A*11:01. Described as above. The following applies: source organism: Dengue virus 3 Singapore/8120/1995.
The target of experiment [4] is HLA-A*31:01. The description is as above. The following applies: source organism: Dengue virus 3 Singapore/8120/1995.
The next experiment addresses HLA-A*24:02. Description: IEDB peptide-MHC binding, purified MHC/competitive/fluorescence; ≥ and ≤ were set here for values at or beyond the usual limits of such assays.
Experiment [5] addresses HLA-A*02:01. The description is as above.
The target in a further experiment is HLA-A*02:02. Put plainly: IEDB peptide-MHC binding, purified MHC/competitive/radioactivity; filed as Kd, often an IC50 or EC50 that approximates it; ≥ and ≤ were set here for values at or beyond the usual limits of such assays. The following applies: source organism: SARS coronavirus Tor2.
The target in another experiment is HLA-A*02:06. Described as above. Particulars: source organism: SARS coronavirus Tor2.
In a further experiment the target is HLA-A*02:03. The description is as above. Particulars: source organism: SARS coronavirus Tor2.
The target in experiment [6] is HLA-A*02:01. Put plainly: IEDB peptide-MHC binding, purified MHC/direct/fluorescence; filed as Kd, often an IC50 or EC50 that approximates it; ≥ and ≤ were set here for values at or beyond the usual limits of such assays. The following applies: source organism: SARS-CoV1.
A further experiment has as its target HLA-A*69:01. The description is as above. Particulars: source organism: SARS-CoV1.
Experiment [7] concerns the target HLA-A*11:01. The description is as above. The following applies: source organism: SARS-CoV1.
In a further experiment the target is HLA-A*68:01. Description: IEDB peptide-MHC binding, purified MHC/competitive/radioactivity; filed as Kd, often an IC50 or EC50 that approximates it; ≥ and ≤ were set here for values at or beyond the usual limits of such assays. Particulars: source organism: Dengue virus 2 Jamaica/1409/1983.
The target in another experiment is HLA-B*35:01. Described as above. The following applies: source organism: Dengue virus 4 Philippines/H241/1956.
Experiment [8] deals with HLA-A*03:01. Put plainly: IEDB peptide-MHC binding, purified MHC/direct/fluorescence; filed as Kd, often an IC50 or EC50 that approximates it; ≥ and ≤ were set here for values at or beyond the usual limits of such assays. The following applies: source organism: Cowpox virus.
The target in experiment [9] is HLA-A*31:01. The description is as above. The following applies: source organism: Cowpox virus.
The target of experiment [10] is HLA-A*01:01. Description: IEDB peptide-MHC binding, purified MHC/competitive/radioactivity; filed as Kd, often an IC50 or EC50 that approximates it; ≥ and ≤ were set here for values at or beyond the usual limits of such assays. The following applies: source organism: Dengue virus 2 Jamaica/1409/1983.
[11] abbreviates: source organism: Vaccinia virus WR.
Where [12] appears, read: source organism: Vaccinia virus Copenhagen.
[13] abbreviates: source organism: Dengue virus 3 Martinique/1243/1999.
Setting [14] is: source organism: Dengue virus 2 Jamaica/1409/1983.
[15] abbreviates: source organism: Zaire ebolavirus.
Where [16] appears, read: source organism: Dengue virus 1 Brazil/97-11/1997.
Where [17] appears, read: source organism: Sudan ebolavirus.
Where [18] appears, read: source organism: Dengue virus 4 Philippines/H241/1956.
[19] abbreviates: source organism: Vaccinia virus.

The term Kd denotes the equilibrium constant for the complex coming apart. Consider EVEDYGFGVF, for which the results for the Kd in the experiment with HLA-A*23:01 and in the experiment with HLA-A*26:01 were 1 µM and 0.132 µM, respectively.
As to AIMMILSTI, in the experiment with HLA-A*32:01 (setting [11]), the dissociation constant (Kd) is 0.00245 µM.
RTRYLPSLV: in the experiment with HLA-A*30:01 (setting [12]), the dissociation constant Kd came to 0.000485 µM.
With QRKKTGKPSI, in the experiment with HLA-A*30:01 (setting [13]), the Kd came out at 1.15 µM.
Take IGVLLTWIGL: in the experiment with HLA-A*32:01 (setting [13]), the dissociation constant Kd is at least 33 µM.
In the experiment with HLA-A*01:01 [1] (source organism: Francisella tularensis subsp. holarctica LVS), NSDEQSLEY yielded a Kd of at most 0.001 µM.
On to AWNIWEVEDY, for which the Kd in the experiment with HLA-A*30:02 worked out at 1.88 µM.
Regarding KVVRVQRPTP, the Kd in the experiment with HLA-A*30:01 (setting [14]) worked out at 0.122 µM.
For the sequence KALKINWYK, the Kd in the experiment with HLA-A*30:01 (source organism: Dengue virus 3 Singapore/8120/1995) worked out at 0.36 µM; with HLA-A*03:01 [2], 0.0841 µM; in the experiment with HLA-A*11:01 [3] it was 0.0817 µM; with HLA-A*31:01 [4], 0.00011 µM.
By IC50 is commonly meant the concentration that inhibits the measured activity by half. With AWIPYFGPA, the concentration for half-maximal inhibition (IC50) with HLA-A*24:02 (setting [15]) was at least 81.1 µM; with HLA-A*02:01 [5] (setting [15]), 20 µM.
Take FVDGVPFVV: the Kd with HLA-A*02:02 is 0.00962 µM; with HLA-A*02:06, 0.000908 µM; with HLA-A*02:03, 0.0859 µM; with HLA-A*02:01 [6], 0.124 µM; in the experiment with HLA-A*69:01, 0.0233 µM; in the experiment with HLA-A*01:01 [1] (source organism: SARS-CoV1), 1.41 µM. This sequence displayed an equilibrium dissociation constant (Kd) with HLA-A*11:01 [7] of at least 23.1 µM.
Regarding LTKRFSLGM, the dissociation constant (Kd) with HLA-A*26:01 is at least 31.8 µM.
Turning to KQWFLDLPLP, in the experiment with HLA-A*30:01 (setting [16]), the dissociation constant (Kd) came out at 9.59 µM.
On to FTPQFLLQL, for which the half-maximal inhibitory concentration (IC50) was found to be 0.814 µM in the experiment with HLA-A*24:02 (setting [15]) and 0.292 µM with HLA-A*02:01 [5] (setting [15]).
Sequence IHHASAPLT gave an IC50 in the experiment with HLA-A*02:01 [5] (setting [15]) of at least 378 µM.
Regarding LTILIRTGLL, in the experiment with HLA-A*26:01, the Kd turned out to be 8.47 µM.
As for TITETAATI, the IC50 amounted to 48.4 µM in the experiment with HLA-A*24:02 (setting [17]) and 44.9 µM in the experiment with HLA-A*02:01 [5] (setting [17]).
For SSNNVSSSI, the Kd in the experiment with HLA-A*32:01 (setting [12]) worked out at 0.155 µM.
As to FNYLFGGFS, the IC50 in the experiment with HLA-A*02:01 [5] (source organism: Variola virus) was 51.6 µM.
As to RDKFRKSSF, in the experiment with HLA-A*24:02 (setting [17]), the IC50 came out at 35.7 µM.
In the experiment with HLA-A*24:02 (setting [15]), GRQTQSRPI returned an IC50 of at least 204 µM.
Take ITVIDLEPIS: in the experiment with HLA-A*30:01 (setting [18]), the Kd was 0.105 µM.
In the experiment with HLA-A*02:01 [5] (source organism: Variola virus), IDSMFLMTA yielded an IC50 of 28.7 µM.
For the sequence HHRRTDNDS, in the experiment with HLA-A*02:01 [5] (setting [15]), the IC50 was at least 72.1 µM.
Turning to EEINNQLLL, the half-maximal inhibitory concentration (IC50) with HLA-A*24:02 (setting [19]) worked out at 57.8 µM.
In the experiment with HLA-A*02:01 [5] (setting [15]), GVTGILQLP showed a half-inhibitory concentration (IC50) of 63.5 µM.
With KTKIDIIFA, the Kd in the experiment with HLA-A*30:01 (setting [19]) turned out to be 0.01 µM.
Consider STFIMLEGE, for which the IC50 with HLA-A*02:01 [5] (setting [12]) is at least 434 µM.
As to ELSFTVVSN, the concentration for half-maximal inhibition (IC50) with HLA-A*24:02 (setting [15]) was at least 119 µM; with HLA-A*02:01 [5] (setting [15]), at least 220 µM.
For GTNGISNGI, the dissociation constant Kd in the experiment with HLA-A*32:01 (setting [11]) amounted to 0.0201 µM.
Regarding LVKLHSGKDV, the Kd with HLA-A*30:01 (setting [16]) was determined as 5.94 µM.
As for GQLKLNWFKK, the Kd in the experiment with HLA-A*32:01 (setting [14]) is 2.07 µM.
On to KWKRQLNSL, for which, in the experiment with HLA-A*30:01 (setting [18]), the dissociation constant Kd came out at 0.29 µM.
In the case of MALIVSIFK, in the experiment with HLA-A*30:01 (setting [19]), the Kd was 0.896 µM.
As to DVFFTPPEK, the values for the Kd in the experiment with HLA-A*30:01 (setting [14]) and in the experiment with HLA-A*68:01 were 1.3 µM and 0.00359 µM, respectively.
EFLRYLLFG showed a half-inhibitory concentration (IC50) with HLA-A*24:02 (setting [19]) of 17.8 µM.
With FLNEDHWFGR, the Kd in the experiment with HLA-A*32:01 (setting [18]) amounted to 1.56 µM.
Regarding MPPLRFLGED, the Kd in the experiment with HLA-B*35:01 came to 15.2 µM.
Take GKIIHEWCCR: in the experiment with HLA-A*32:01 (setting [16]), the equilibrium dissociation constant (Kd) is at least 51.6 µM.
As for TDFHERPVI, the IC50 in the experiment with HLA-A*24:02 (source organism: Variola virus) was 0.408 µM.
Regarding SWLITSGFR, the results for the dissociation constant (Kd) with HLA-A*03:01 [8] and in the experiment with HLA-A*31:01 [9] were at least 20 µM and 1.1 µM, respectively.
In the case of LIEWAMEKS, the half-maximal inhibitory concentration (IC50) with HLA-A*02:01 [5] (setting [19]) was at least 408 µM.
Consider RTSFAFQAI, for which the dissociation constant Kd in the experiment with HLA-A*32:01 (setting [11]) came out at 0.00378 µM.
For the sequence ATVTGGIFLF, the Kd in the experiment with HLA-A*01:01 [10] was found to be 2.03 µM; in the experiment with HLA-A*26:01, 2.51 µM.
